Test results from doi:10.1101/2021.11.29.470362 (bioRxiv, 2021).

B1: IgG 15033 (antibody, V domains shown)
VH: EVQLVESGGGLVQPGGSLRLSCAASGFDLGGYSMHWVRQAPGKGLEWVAGIYASGGATAYADSVKGRFTISADTSKNTAYLQMNSLRAEDTAVYYCARSYYYGGFGMDYWGQGTLVTVSS
VL: DIQMTQSPSSLSASVGDRVTITCRASQSVSSAVAWYQQKPGKAPKLLIYSASDLYSGVPSRFSGSRSGTDFTLTISSLQPEDFATYYCQQSYRYPITFGQGTKVEIK
B2: peptide-IgG 33^HR1 (peptide R1 fused to the N-terminus of the HC of IgG 15033) (antibody, V domains shown)
VH: EVQLVESGGGLVQPGGSLRLSCAASGFDLGGYSMHWVRQAPGKGLEWVAGIYASGGATAYADSVKGRFTISADTSKNTAYLQMNSLRAEDTAVYYCARSYYYGGFGMDYWGQGTLVTVSS
VL: DIQMTQSPSSLSASVGDRVTITCRASQSVSSAVAWYQQKPGKAPKLLIYSASDLYSGVPSRFSGSRSGTDFTLTISSLQPEDFATYYCQQSYRYPITFGQGTKVEIK
B3: peptide-IgG 33^LN1 (peptide N1 fused to the N-terminus of the LC of IgG 15033) (antibody, V domains shown)
VH: EVQLVESGGGLVQPGGSLRLSCAASGFDLGGYSMHWVRQAPGKGLEWVAGIYASGGATAYADSVKGRFTISADTSKNTAYLQMNSLRAEDTAVYYCARSYYYGGFGMDYWGQGTLVTVSS
VL: DIQMTQSPSSLSASVGDRVTITCRASQSVSSAVAWYQQKPGKAPKLLIYSASDLYSGVPSRFSGSRSGTDFTLTISSLQPEDFATYYCQQSYRYPITFGQGTKVEIK

Biological target: SARS-CoV-2 S-protein extracellular domain (ECD) (SARS-CoV-2, Wuhan-Hu-1 (ancestral), biotin, site-specific (BirA reaction) on the AviTag)
Experiment: BLI

Going from B1 to B2, the Kd falls from 0.1 nM to less than 0.001 nM. The second binds more tightly here.

In the case of B3, the Kd is reported as less than 0.001 nM.
